Results as given in article PMC6468047, “Cannabinoid CB1 and CB2 Receptor-Mediated Arrestin Translocation: Species, Subtype, and Agonist-Dependence” (Frontiers in Pharmacology, 2019).
Read-outs that look alike come from different tables or passages of the source.

Assays:
[1] = target: human vasopressin receptor 2 (3HA-hV2R) (human) (UniProt P30518)
[2] = target: human cannabinoid receptor 1 (pplss-3HA-hCB1) (human) (UniProt P21554)
[3] = target: human cannabinoid receptor 2 (3HA-hCB2) (human) (UniProt P34972)
Chain of human cannabinoid receptor 2 (3HA-hCB2) (human) (P34972 whole entry): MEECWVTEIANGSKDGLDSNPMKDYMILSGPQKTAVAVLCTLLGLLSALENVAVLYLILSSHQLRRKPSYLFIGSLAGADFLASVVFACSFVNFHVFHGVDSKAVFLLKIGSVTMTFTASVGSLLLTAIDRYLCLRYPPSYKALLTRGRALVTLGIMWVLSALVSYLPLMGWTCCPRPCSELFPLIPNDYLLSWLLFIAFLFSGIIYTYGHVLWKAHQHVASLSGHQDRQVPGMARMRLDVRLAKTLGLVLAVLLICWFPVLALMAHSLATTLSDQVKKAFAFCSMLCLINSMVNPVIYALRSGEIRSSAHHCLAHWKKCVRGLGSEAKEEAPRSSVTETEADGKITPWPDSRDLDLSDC

[4] = target: human D2 dopamine receptor (3HA-hD2R) (human) (UniProt P14416)
Chain of human D2 dopamine receptor (3HA-hD2R) (human) (P14416 whole entry): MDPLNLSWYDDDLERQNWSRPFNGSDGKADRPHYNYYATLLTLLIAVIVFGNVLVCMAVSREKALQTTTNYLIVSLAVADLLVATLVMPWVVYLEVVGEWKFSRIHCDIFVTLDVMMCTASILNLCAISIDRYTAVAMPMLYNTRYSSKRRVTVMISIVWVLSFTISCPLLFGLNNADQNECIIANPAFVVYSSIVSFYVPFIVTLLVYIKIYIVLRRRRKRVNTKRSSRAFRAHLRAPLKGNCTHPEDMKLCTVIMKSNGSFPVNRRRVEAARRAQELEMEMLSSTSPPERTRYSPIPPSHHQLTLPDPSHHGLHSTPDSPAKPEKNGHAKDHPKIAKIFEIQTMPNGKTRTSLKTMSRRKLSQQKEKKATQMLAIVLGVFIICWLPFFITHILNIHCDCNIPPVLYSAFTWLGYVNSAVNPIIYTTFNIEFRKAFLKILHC

[5] = target: human vasopressin receptor 2 (3HA-hV2R) (human) (UniProt P30518); remark: listed apart in the source
[6] = target: human cannabinoid receptor 1 (pplss-3HA-hCB1) (human) (UniProt P21554); remark: listed apart in the source
[7] = target: human cannabinoid receptor 2 (3HA-hCB2) (human) (UniProt P34972); remark: listed apart in the source
[8] = target: human D2 dopamine receptor (3HA-hD2R) (human) (UniProt P14416); remark: listed apart in the source
[9] = target: human vasopressin receptor 2 (3HA-hV2R) (human) (UniProt P30518); remark: listed apart in the source
[10] = target: human cannabinoid receptor 1 (pplss-3HA-hCB1) (human) (UniProt P21554); remark: listed apart in the source
[11] = target: human cannabinoid receptor 2 (3HA-hCB2) (human) (UniProt P34972); remark: listed apart in the source

Chain of human β-arrestin-1 (Rluc8-hβ-arrestin-1-Sp1) (P49407 whole entry): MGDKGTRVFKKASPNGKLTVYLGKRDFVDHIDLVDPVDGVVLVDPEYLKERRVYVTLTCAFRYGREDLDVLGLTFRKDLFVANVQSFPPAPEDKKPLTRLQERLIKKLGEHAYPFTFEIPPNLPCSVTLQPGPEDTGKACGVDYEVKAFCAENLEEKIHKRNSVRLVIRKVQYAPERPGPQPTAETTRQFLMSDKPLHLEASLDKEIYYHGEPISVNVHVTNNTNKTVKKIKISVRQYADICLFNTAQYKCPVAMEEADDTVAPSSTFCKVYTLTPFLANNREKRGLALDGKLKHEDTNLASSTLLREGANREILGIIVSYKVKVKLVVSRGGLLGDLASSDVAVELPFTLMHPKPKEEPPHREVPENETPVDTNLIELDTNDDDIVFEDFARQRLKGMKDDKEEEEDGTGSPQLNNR
Chain of bovine β-arrestin-2 (Rluc8-bβ-arrestin-2-Sp1) (P32120 whole entry): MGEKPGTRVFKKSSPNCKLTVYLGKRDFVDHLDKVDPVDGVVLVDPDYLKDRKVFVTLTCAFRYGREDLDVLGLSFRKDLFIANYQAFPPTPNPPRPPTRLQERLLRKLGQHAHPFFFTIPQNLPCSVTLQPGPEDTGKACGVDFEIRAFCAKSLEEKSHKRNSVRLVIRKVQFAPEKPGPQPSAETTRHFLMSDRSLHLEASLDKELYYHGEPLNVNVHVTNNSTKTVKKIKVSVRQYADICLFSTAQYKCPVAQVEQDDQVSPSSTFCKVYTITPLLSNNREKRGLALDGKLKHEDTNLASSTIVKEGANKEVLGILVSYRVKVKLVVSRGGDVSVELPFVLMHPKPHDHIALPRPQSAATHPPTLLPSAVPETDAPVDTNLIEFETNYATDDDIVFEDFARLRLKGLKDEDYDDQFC
Chain of human cannabinoid receptor 1 (pplss-3HA-hCB1) (human) (P21554 whole entry): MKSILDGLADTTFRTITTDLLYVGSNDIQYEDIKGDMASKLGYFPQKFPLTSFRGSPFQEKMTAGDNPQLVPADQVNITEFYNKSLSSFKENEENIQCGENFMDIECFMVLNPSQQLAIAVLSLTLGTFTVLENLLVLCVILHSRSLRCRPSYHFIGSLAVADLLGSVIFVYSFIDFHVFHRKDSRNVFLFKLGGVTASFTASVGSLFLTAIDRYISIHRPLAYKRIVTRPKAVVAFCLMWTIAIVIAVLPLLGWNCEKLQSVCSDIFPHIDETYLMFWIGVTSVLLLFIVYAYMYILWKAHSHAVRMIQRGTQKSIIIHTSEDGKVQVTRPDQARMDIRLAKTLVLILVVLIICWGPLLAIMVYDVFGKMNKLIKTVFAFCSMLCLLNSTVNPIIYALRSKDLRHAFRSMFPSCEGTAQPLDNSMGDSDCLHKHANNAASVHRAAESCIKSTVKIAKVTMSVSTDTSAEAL
Chain of human β-arrestin-2 (Rluc8-hβ-arrestin-2-Sp1) (P32121 whole entry): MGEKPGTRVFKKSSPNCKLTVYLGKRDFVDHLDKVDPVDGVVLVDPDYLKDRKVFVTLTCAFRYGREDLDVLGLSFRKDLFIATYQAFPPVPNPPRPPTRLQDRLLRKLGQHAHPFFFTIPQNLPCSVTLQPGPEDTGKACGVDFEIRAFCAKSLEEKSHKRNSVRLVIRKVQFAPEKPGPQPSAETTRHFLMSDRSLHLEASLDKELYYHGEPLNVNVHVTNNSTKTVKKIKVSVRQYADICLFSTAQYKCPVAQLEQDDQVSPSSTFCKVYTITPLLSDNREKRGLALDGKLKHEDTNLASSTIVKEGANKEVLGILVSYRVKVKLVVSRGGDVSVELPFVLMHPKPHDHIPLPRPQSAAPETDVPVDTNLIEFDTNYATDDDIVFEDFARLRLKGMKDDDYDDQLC

## human β-arrestin-2 (Rluc8-hβ-arrestin-2-Sp1) (from UniProt P32121 1-409) (natural protein)
[1]
  Emax, arrestin translocation to the plasma membrane (BRET, AUC of 25 min); agonist AVP: 306 ΔBRET.sec
[2]
  Emax, arrestin translocation to the plasma membrane (BRET, AUC of 25 min); agonist 2-AG: 236 ΔBRET.sec
  Emax, arrestin translocation to the plasma membrane (BRET, AUC of 25 min); agonist 2-AG; GRK2 co-expressed: 150 ΔBRET.sec
  Emax, arrestin translocation to the plasma membrane (BRET, AUC of 25 min); agonist AEA: 47.9 ΔBRET.sec
  Emax, arrestin translocation to the plasma membrane (BRET, AUC of 25 min); agonist CP55,940: 83.7 ΔBRET.sec
  Emax, arrestin translocation to the plasma membrane (BRET, AUC of 25 min); agonist CP55,940; GRK2 co-expressed: 120 ΔBRET.sec
  Emax, arrestin translocation to the plasma membrane (BRET, AUC of 25 min); agonist WIN55,212-2: 164 ΔBRET.sec
  efficacy at 10 μM BAY (NA, not active; no curve could be fitted), arrestin translocation to the plasma membrane (BRET, AUC of 25 min): 15.3 ΔBRET.sec
  efficacy at 10 μM THC (NA, not active; no curve could be fitted), arrestin translocation to the plasma membrane (BRET, AUC of 25 min): 5.9 ΔBRET.sec
[3]
  Emax, arrestin translocation to the plasma membrane (BRET, AUC of 25 min); agonist 2-AG: 31.3 ΔBRET.sec
  Emax, arrestin translocation to the plasma membrane (BRET, AUC of 25 min); agonist 2-AG; GRK2 co-expressed: 68.7 ΔBRET.sec
  Emax, arrestin translocation to the plasma membrane (BRET, AUC of 25 min); agonist CP55,940: 37.4 ΔBRET.sec
  Emax, arrestin translocation to the plasma membrane (BRET, AUC of 25 min); agonist CP55,940; GRK2 co-expressed: 70.4 ΔBRET.sec
  Emax, arrestin translocation to the plasma membrane (BRET, AUC of 25 min); agonist JWH-015: 34 ΔBRET.sec
  Emax, arrestin translocation to the plasma membrane (BRET, AUC of 25 min); agonist JWH-133: 37.8 ΔBRET.sec
  Emax, arrestin translocation to the plasma membrane (BRET, AUC of 25 min); agonist WIN55,212-2: 24.4 ΔBRET.sec
  efficacy at 10 μM THC (NA, not active; no curve could be fitted), arrestin translocation to the plasma membrane (BRET, AUC of 25 min): -3.8 ΔBRET.sec

## human β-arrestin-1 (Rluc8-hβ-arrestin-1-Sp1) (from UniProt P49407 1-418) (natural protein)
[4]
  Response, arrestin translocation to the plasma membrane (BRET, AUC of 25 min); 10 μM dopamine: 17.9 ΔBRET.sec
  Response, arrestin translocation to the plasma membrane (BRET, AUC of 25 min); 10 μM dopamine; GRK2 co-expressed: 86.1 ΔBRET.sec
[5]
  Emax, arrestin translocation to the plasma membrane (BRET, AUC of 25 min); agonist AVP: 246 ΔBRET.sec
[6]
  Response, arrestin translocation to the plasma membrane (BRET, AUC of 25 min); 1 μM CP55,940 (not significantly different from vehicle): 17.6 ΔBRET.sec
  Response, arrestin translocation to the plasma membrane (BRET, AUC of 25 min); 1 μM CP55,940; GRK2 co-expressed (significantly different from vehicle): 28.1 ΔBRET.sec
  Response, arrestin translocation to the plasma membrane (BRET, AUC of 25 min); 10 μM AEA (not significantly different from vehicle): 10 ΔBRET.sec
  Response, arrestin translocation to the plasma membrane (BRET, AUC of 25 min); 10 μM BAY (not significantly different from vehicle): 1.4 ΔBRET.sec
  Response, arrestin translocation to the plasma membrane (BRET, AUC of 25 min); 10 μM THC (not significantly different from vehicle): 16.2 ΔBRET.sec
  Response, arrestin translocation to the plasma membrane (BRET, AUC of 25 min); 10 μM WIN55,212-2 (significantly different from vehicle): 36.2 ΔBRET.sec
  Response, arrestin translocation to the plasma membrane (BRET, AUC of 25 min); 31.6 μM 2-AG (significantly different from vehicle): 51.8 ΔBRET.sec
  Response, arrestin translocation to the plasma membrane (BRET, AUC of 25 min); 31.6 μM 2-AG; GRK2 co-expressed (significantly different from vehicle): 53 ΔBRET.sec
[7]
  Response, arrestin translocation to the plasma membrane (BRET, AUC of 25 min); 1 μM CP55,940 (significantly different from vehicle): 20.5 ΔBRET.sec
  Response, arrestin translocation to the plasma membrane (BRET, AUC of 25 min); 1 μM CP55,940; GRK2 co-expressed (significantly different from vehicle): 22.7 ΔBRET.sec
  Response, arrestin translocation to the plasma membrane (BRET, AUC of 25 min); 10 μM JWH-015 (significantly different from vehicle): 31.2 ΔBRET.sec
  Response, arrestin translocation to the plasma membrane (BRET, AUC of 25 min); 10 μM JWH-133 (not significantly different from vehicle): 4.9 ΔBRET.sec
  Response, arrestin translocation to the plasma membrane (BRET, AUC of 25 min); 10 μM THC (significantly different from vehicle): 14.4 ΔBRET.sec
  Response, arrestin translocation to the plasma membrane (BRET, AUC of 25 min); 10 μM WIN55,212-2 (not significantly different from vehicle): 3.2 ΔBRET.sec
  Response, arrestin translocation to the plasma membrane (BRET, AUC of 25 min); 31.6 μM 2-AG (significantly different from vehicle): 14.7 ΔBRET.sec
  Response, arrestin translocation to the plasma membrane (BRET, AUC of 25 min); 31.6 μM 2-AG; GRK2 co-expressed (significantly different from vehicle): 17.2 ΔBRET.sec

## bovine β-arrestin-2 (Rluc8-bβ-arrestin-2-Sp1) (from UniProt P32120 1-420) (natural protein)
[8]
  Emax, arrestin translocation to the plasma membrane (BRET, AUC of 25 min); agonist dopamine: 40.6 ΔBRET.sec
  Emax, arrestin translocation to the plasma membrane (BRET, AUC of 25 min); agonist dopamine; GRK2 co-expressed: 129 ΔBRET.sec
[9]
  Emax, arrestin translocation to the plasma membrane (BRET, AUC of 25 min); agonist AVP: 194 ΔBRET.sec
[10]
  Emax, arrestin translocation to the plasma membrane (BRET, AUC of 25 min); agonist 2-AG: 116 ΔBRET.sec
  Emax, arrestin translocation to the plasma membrane (BRET, AUC of 25 min); agonist 2-AG; GRK2 co-expressed: 91.7 ΔBRET.sec
  Emax, arrestin translocation to the plasma membrane (BRET, AUC of 25 min); agonist AEA: 32.1 ΔBRET.sec
  Emax, arrestin translocation to the plasma membrane (BRET, AUC of 25 min); agonist CP55,940: 35.2 ΔBRET.sec
  Emax, arrestin translocation to the plasma membrane (BRET, AUC of 25 min); agonist CP55,940; GRK2 co-expressed: 58.9 ΔBRET.sec
  Emax, arrestin translocation to the plasma membrane (BRET, AUC of 25 min); agonist WIN55,212-2: 72 ΔBRET.sec
  efficacy at 10 μM BAY (NA, not active; no curve could be fitted), arrestin translocation to the plasma membrane (BRET, AUC of 25 min): 2.4 ΔBRET.sec
  efficacy at 10 μM THC (NA, not active; no curve could be fitted), arrestin translocation to the plasma membrane (BRET, AUC of 25 min): 0.54 ΔBRET.sec
[11]
  Emax, arrestin translocation to the plasma membrane (BRET, AUC of 25 min); agonist 2-AG: 45 ΔBRET.sec
  Emax, arrestin translocation to the plasma membrane (BRET, AUC of 25 min); agonist 2-AG; GRK2 co-expressed: 75.7 ΔBRET.sec
  Emax, arrestin translocation to the plasma membrane (BRET, AUC of 25 min); agonist CP55,940: 45.4 ΔBRET.sec
  Emax, arrestin translocation to the plasma membrane (BRET, AUC of 25 min); agonist CP55,940; GRK2 co-expressed: 70.9 ΔBRET.sec
  Emax, arrestin translocation to the plasma membrane (BRET, AUC of 25 min); agonist JWH-015: 26.7 ΔBRET.sec
  Emax, arrestin translocation to the plasma membrane (BRET, AUC of 25 min); agonist JWH-133: 49.7 ΔBRET.sec
  Emax, arrestin translocation to the plasma membrane (BRET, AUC of 25 min); agonist WIN55,212-2: 25.6 ΔBRET.sec
  efficacy at 10 μM THC (NA, not active; no curve could be fitted), arrestin translocation to the plasma membrane (BRET, AUC of 25 min): 2 ΔBRET.sec
